Experimental findings from PMC8038991 (2021) are described below.

For assay [1], the target named is purified wild type ZZ fragment p62 (122-175) of the ITC table (Fig. 3b) (human, UniProt Q13501 122-175). The assay is described as follows: ITC. (In ITC the heat of successive injections is recorded.)
In assay [2] the target is N132Q ZZ fragment p62 (122-175) (Homo sapiens). The assay is described as follows: ITC.

Ends that are not written are not given here.

Sequence of N132Q ZZ fragment p62 (122-175) (Homo sapiens) (chain, as listed by the source N132Q): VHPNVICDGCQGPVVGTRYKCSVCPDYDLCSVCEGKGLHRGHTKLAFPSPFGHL

Broadly, the Kd is the free concentration of one partner at which half of the binding sites on the other are occupied at equilibrium, for simple one-to-one binding. HIFS: the Kd in assay [1] was determined as 300 µM.
As to YIFS (also: two Zn2+ ions bound) [YIFS tetrapeptide (Nt-Tyr)], the Kd in assay [2] worked out at 143 µM.
The molecule WIFS showed a Kd in assay [1] of 374 µM.
In assay [2], RIFS (also: two Zn2+ ions bound) [RIFS tetrapeptide (Nt-Arg)] displayed a Kd of 21.4 µM.
KIFS: in assay [1], the Kd amounted to 51.8 µM.
